Data: IntAct's records for PubMed 26822058

B1: MARVEL domain-containing protein 2 (Homo sapiens), Q8N4S9 (parent)
chain: MSNDGRSRNRDRRYDEVPSDLPYQDTTIRTHPTLHDSERAVSADPLPPPPLPLQPPFGPDFYSSDTEEPAIAPDLKPVRRFVPDSWKNFFRGKKKDPEWDKPVSDIRYISDGVECSPPASPARPNHRSPLNSCKDPYGGSEGTFSSRKEADAVFPRDPYGSLDRHTQTVRTYSEKVEEYNLRYSYMKSWAGLLRILGVVELLLGAGVFACVTAYIHKDSEWYNLFGYSQPYGMGGVGGLGSMYGGYYYTGPKTPFVLVVAGLAWITTIIILVLGMSMYYRTILLDSNWWPLTEFGINVALFILYMAAAIVYVNDTNRGGLCYYPLFNTPVNAVFCRVEGGQIAAMIFLFVTMIVYLISALVCLKLWRHEAARRHREYMEQQEINEPSLSSKRKMCEMATSGDRQRDSEVNFKELRTAKMKPELLSGHIPPGHIPKPIVMPDYVAKYPVIQTDDERERYKAVFQDQFSEYKELSAEVQAVLRKFDELDAVMSRLPHHSESRQEHERISRIHEEFKKKKNDPTFLEKKERCDYLKNKLSHIKQRIQEYDKVMNWDVQGYS

Variants of: B1
Details: with plmn_human PLG

Row | effect of a mutation on the interaction | Variant
1 | decreasing interaction strength | K217A
2 | decreasing interaction strength | K252A
3 | disrupting interaction strength | K217A;K252A
